Assay [1] deals with T1, leucyl-tRNA synthetase (LRS), endogenous in MEF cell lysate (UniProt Q8BMJ2 1-1178).
T1 construct: Endogenous protein immunoprecipitated from MEF cells
Put plainly: co-immunoprecipitation from MEF cell lysate, Western blot. How it is done:
Particularly, MEF cells stimulated by amino acids by the same manner as described in Example <1-1> were washed with cold PBS. At this time, MEF cells unstimulated with amino acids were used as the control. The cells were lysed in mild lysis buffer (MLB: 10 mM Tris (pH 7.5), 2 mM EDTA, 100 mM NaCl, […], 50 mM NaF, 1 mM Na₃VO₄ and protease inhibitor cocktail (Sigma)). On the other hand, for immunoprecipitation of LRS, the cells were lysed in MIPT buffer. Then, the lysate was microcentrifuged at 13,000×g for 10 minutes to collect supernatant. An antibody was added to the supernatant at 4° C., followed by immunoprecipitation. Reaction was induced in the presence of protein G-agarose or M2-beads (Sigma). The beads were washed with lysis buffer 3 to 5 times, followed by Western blotting according to the conventional method. Immunoprecipitation for Vps34 was performed with protein G-agarose beads, and immunoprecipitation for Flag-LRS was performed with M2-beads.

For assay [2], the target named is T1, leucyl-tRNA synthetase (LRS), …. The assay can be described thus: immunoprecipitation with Atg14L antibody from MEF cell lysate, Western blot.

T1 sequence (Q8BMJ2 whole entry): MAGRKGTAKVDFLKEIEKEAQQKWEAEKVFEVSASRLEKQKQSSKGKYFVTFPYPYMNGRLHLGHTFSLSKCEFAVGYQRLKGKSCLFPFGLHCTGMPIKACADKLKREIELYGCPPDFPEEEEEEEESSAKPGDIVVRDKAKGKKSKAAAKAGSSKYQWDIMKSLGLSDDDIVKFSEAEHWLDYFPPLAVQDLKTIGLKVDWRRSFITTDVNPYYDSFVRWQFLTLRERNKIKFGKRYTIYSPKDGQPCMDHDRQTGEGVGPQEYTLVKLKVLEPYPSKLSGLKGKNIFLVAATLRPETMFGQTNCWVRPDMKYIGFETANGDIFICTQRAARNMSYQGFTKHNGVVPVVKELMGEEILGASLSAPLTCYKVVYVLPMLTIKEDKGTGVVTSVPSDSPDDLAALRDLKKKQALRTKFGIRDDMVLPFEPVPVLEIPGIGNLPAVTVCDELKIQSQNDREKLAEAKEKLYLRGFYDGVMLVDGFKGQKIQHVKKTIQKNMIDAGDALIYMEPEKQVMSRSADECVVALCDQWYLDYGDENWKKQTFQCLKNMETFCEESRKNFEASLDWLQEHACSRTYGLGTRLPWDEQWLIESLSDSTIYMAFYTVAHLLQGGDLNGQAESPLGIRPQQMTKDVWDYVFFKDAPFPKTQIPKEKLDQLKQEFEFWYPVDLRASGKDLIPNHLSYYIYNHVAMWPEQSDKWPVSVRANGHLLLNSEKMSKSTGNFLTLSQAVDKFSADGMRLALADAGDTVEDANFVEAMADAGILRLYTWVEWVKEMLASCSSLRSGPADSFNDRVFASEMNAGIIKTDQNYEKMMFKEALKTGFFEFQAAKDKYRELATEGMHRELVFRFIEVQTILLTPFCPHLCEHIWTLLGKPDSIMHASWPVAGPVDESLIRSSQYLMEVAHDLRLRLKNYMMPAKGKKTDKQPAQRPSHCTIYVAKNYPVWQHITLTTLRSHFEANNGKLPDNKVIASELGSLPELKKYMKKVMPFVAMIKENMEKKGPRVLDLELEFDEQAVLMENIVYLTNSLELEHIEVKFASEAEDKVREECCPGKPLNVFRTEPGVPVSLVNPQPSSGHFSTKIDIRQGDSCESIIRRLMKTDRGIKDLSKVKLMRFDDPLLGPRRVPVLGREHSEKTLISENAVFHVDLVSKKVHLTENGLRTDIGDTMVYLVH

B1: Vps34 (vacuolar protein sorting 34), endogenous in MEF cell lysate (enzyme, UniProt Q6PF93 1-887, looked up)
chain: MGEAEKFHYIYSCDLDINVQLKIGSLEGKREQKSYKAVLEDPMLKFSGLYQETCSDLYVTCQVFAEGKPLALPVRTSYKAFSTRWNWNEWLKLPVKYPDLPRNAQVALTIWDVYGPGSAVPVGGTTVSLFGKYGMFRQGMHDLKVWPNVEADGSEPTRTPGRTSSTLSEDQMSRLAKLTKAHRQGHMVKVDWLDRLTFREIEMINESEKRSSNFMYLMVEFRCVKCDDKEYGIVYYEKDGDESSPILTSFELVKVPDPQMSMENLVESKHHKLARSLRSGPSDHDLKPNATTRDQLNIIVSYPPTKQLTYEEQDLVWKFRYYLTNQEKALTKFLKCVNWDLPQEAKQALELLGKWKPMDVEDSLELLSSHYTNPTVRRYAVARLRQADDEDLLMYLLQLVQALKYENFDDIKNGLEPTKKDSQTSASESLSNSGVSSGDIDSSQIITNPLPPVASPPPASKAKEVSDGENLEQDLCTFLISRACKNSTLANYLYWYVIVECEDQDTQQRDPKTHEMYLNVMRRFSQALLKGDKSVRVMRSLLAAQQTFVDRLVHLMKAVQRESGNRKKKNERLQALLGDNEKMNLSDVELIPLPLEPQVKIRGIIPETATLFKSALMPAQLFFKTEDGGKYPVIFKHGDDLRQDQLILQIISLMDKLLRKENLDLKLTPYKVLATSTKHGFMQFIQSVPVAEVLDTEGSIQNFFRKYAPSETGPYGISAEVMDTYVKSCAGYCVITYILGVGDRHLDNLLLTKTGKLFHIDFGYILGRDPKPLPPPMKLNKEMVEGMGGTQSEQYQEFRKQCYTAFLHLRRYSNLILNLFSLMVDANIPDIALEPDKTVKKVQDKFRLDLSDEEAVHYMQSLIDESVHALFAAVVEQIHKFAQYWRK
notes: Endogenous protein from MEF cells; also called Vps34 immune complex
As for B1, the binding result in assay [1] is “binds”.

B2: Atg14L, endogenous in MEF cell lysate (other, UniProt Q8CDJ3 1-492, looked up)
chain: MASPSGKGSWTPEAPGFGPRALARDLVDSVDDAEGLYVAVERCPLCNTTRRRLTCAKCVQSGDFVYFDGRDRERFIDKKERLSQLKNKQEEFQKEVLKAMEGKRLTDQLRWKIMSCKMRIEQLKQTICKGNEEMKKNSEGLLKNKEKNQKLYSRAQRHQEKKEKIQRHNRKLGDLVEKKTIDLKSHYERLARLRRSHILELTSIIFPIDEVKTSGRDPADVSSETDSAMTSSMVSKLAEARRTTYLSGRWVCDDHNGDTSISITGPWISLPNNGDYSAYYNWVEEKKTTQGPDMEHNNPAYTISAALGYATQLVNIVSHILDINLPKKLCNSEFCGENLSKQKLTRAVRKLNANILYLCSSQHVNLDQLQPLHTLRNLMHLVSPRSEHLGRSGPFEVRADLEESMEFVDPGVAGESDASGDERVSDEETDLGTDWENLPSPRFCDIPSQPVEVSQSQSTQVSPPIASSSAGGMISSAAASVTSWFKAYTGHR
notes: Endogenous protein; also called autophagic Vps34 complex
Turning to B2, in assay [2], the binding result is on record as “no binding”.

The record behind these values is patent US20200155655A1 (GACHON UNIVERSITY OF INDUSTRY ACADEMIC COOPERATION …, published 2020).
